The results in this text go back to the DeepSol protein solubility set.

A short description of the data set: soluble on expression in E. coli; label from the status in PepcDB or PDB records.
For the sequence “MGHHHHHHSHMCGKFTLFSEFDDIIEQFNIDQFLPEGEYHPSYNVAPSQNILTIINDGSNNRLGKLRWGLIPPCAKDEKIGYKMINARAETLAEKPSFRKPLGSKRCIIPADSFYEWKRLDPKTKIPMRIKLKSSNLFAFAGLYEKWNTLEGNLLYTCTIITIKPSELMEDIHDRMPVILTDENKKEWLNPKNTDPDYLQSLLLPYDADDMEAYQVSSLVNSPELIESH”, the “soluble on expression in E. coli” value is recorded as “soluble”.

As for “MGSDKIHHHHHHVNQVSARRPVTVTGEDWFEIAKTLEISSESVVQDFLRDNPGFAADLVIPKRVTIETVFGCNARCGMCVIDQPTERPKGTMPLEQFKAIVDKLVPYRDRIEMMDFFALGEPLIDTHLFERIRYVKAKGFRRLAFATNAHLLTAAKRRDLLESGIDTVIFSIDGITKATHESIRERVNFDKVMENVQAVIRERDQGDFKTRFVVRFVRQAKNRHEWEEYKAFWSSRISPDRNDVVTSYDMHTWGGQVANKDDVIGGEQQRDEMVERLPCHHAFDKLTILADGSIPLCSEDILEPAYGFGKIGDQDPIQVFNSERLRAMRRLHLAGRKALLKGCGECTLLYSEPRRGSD”, the “soluble on expression in E. coli” value was “not soluble”.

As for “KVTNRHFQDVPALEVVTTTHLDQPLPLVIFYHGWQSNKELVLTQARKLARKNLRVVLPDAMNHGERHQIVSQIPSFTFWNSIQGNLGEFELIVNYYRERKLILNEQIGVGGYSMGGMTTGALLTHHPEIKAATIIMGTPNLNAYAQLVRKHAQAHAYYIPSDLALLTSWLDHYDLNLQPETINHRPLLFWHGTEDERIPYSQSRNFFDRVHTAPYAEQVAFITGYQAKHLVKVPLMNKVANFFDYYLN”, the “soluble on expression in E. coli” value is on record as “not soluble”.

For “MGSDKIHHHHHHMRPIKNAKKIDYNLIKVFDTVITEGNATRAARKLDVTPAAISQALLRLQNLYGEELFIRTRKGLVPSSKGKSLHQVFRQAIESIESTLCDKTDAQESNELIVLGGDITENYYFPALLDTVLMNRYIIKHYAIKKTGEYSPASMLTHGYADVIMGILEIKNEMIESYLIDNLSDFVCVCGEKSPLVGLEKMSLYNFYAARHAVYHSDMFSSFTADSIDLFKSSTPYAGRREIGYYSDSLFGVIDIVEKSDMVAILPGKIATYFRDVRRYNIKILRMPDEMIFRTLPVYAYLATNSTHYKNVKKLISTFQSTFLFSQEKQPDALVEGSTSLCDLSV”, the “soluble on expression in E. coli” value is on record as “not soluble”.

As for “MGGGEVKMMSLLEEMKGIYSKKGGKVKPFEKFEGELKEGYRFEYEKKLCEIDVAMFGLISGDLNPVHFDEDFASKTRFGGRVVHGMLTTSLVSAAVARLPGTVVLLEQSFRYTSPVRIGDVVRVEGVVSGVEKNRYTIDVKCYTGDKVVAEGVVKVLIW”, the “soluble on expression in E. coli” value is “soluble”.

As to “MGSDKIHHHHHHMIPLEHRYAQIEKAITYIDENFRAHPSVDEIAQNVGMSKYHFIRVFKEYAGVTPKQFLHCVTLNYAKEHIKESRSILESSLDIGLSSSSRLHELFVNLIGVTPREWRERGRGVLVTYGFGQTPFGEALIGFTDKGICYLGLMSDNKLEILGRFYELWGEAILEYDEKAAQKYLGYIFDRGEEGSPWNLGTNSQVNAWKALINLSRHLEDRVEGLIPCCGIISRSGAMSGHRWRIERGAALSLLDDIREKGSFGFSDNIDL”, the “soluble on expression in E. coli” value is recorded as “not soluble”.

“MLLMMVVGLTAGVLAGCANPKDTTEEFLTAIQKGDIEKARTFVESDKEFNKLNEKTDDAEAKAMLSAITKNFKFEKLEEVSKKDDKAEVKVKITSADLSVAVTKAVGEVMPMAFASAFSEDKEQSEKAIEKTMTSTIIKNLTDKDAAMATREVTLNLKKDKDGDYKIVADDNLKEVLFANAKSLEKMFGGK”: the “soluble on expression in E. coli” value is listed as “not soluble”.

In the case of “MSLIMTTFIQLHLLTAYAPANLNRDESGRPKTAFMGGVERLRVSSQSLKRAWRVSETFEAAMDGFMGKRTRRIGVDYVYRPMKDAGIEEKIAKSSSELIAKQFGKLKSDKDAKPEKNLEIEQIVHVSNHEISLIKQLVDTLIADKREPNDEEVKLLRKEQRSVDMALFDRMLASSPEFNVEAACQVSHALGVSAVTVESDFFTAVDDLNNKEEDAGSGHMGEQGFASALFYTYVCISRDLLVENLGGNEELAKRTIAALTETALTVSPTGKQNSFASRAYATYALAEVGQKQPRSLAAAFFQPVRDTDQIPAAITRLKQQRASFDSVYGNCADDYRELNVQEGTGSLAELLAFVSQEGHHHHHH”, the “soluble on expression in E. coli” value is given as “soluble”.

Consider “MKFAIIIPFYNAEKRLALSIDSIIKQTYSFLKHVEVLLINDGSTDRSSAIAHSYAEKYPSNIRVFDVPNGGPSKARNIGIHNVQEDTDFVGFLDADDLLSPNMLFSMVNFLEKSAVNMLVPAFYYLDDFGKKQKISPHKLNDRFTNGNRVVAIEKEPQAIHFYIGGTFFRFESLKQFVFDETLNFAEDQLLITKFLLENRSYGLIADAGYYYYRDLKQKGSLVSSAWKQPERYTPFLQKVYQTYLTNSKEIFGEVIPYVQYLIAYHAKLFFYKENIYFKEVLNEQEQEIFVRELQKILQEVGPEMIVALDTPLVVKEMMLSILRNGWPVQFKTAELEEVPLVTVKENYRPGKAVTVELLLEEARETLSDGGEFFASTSVGTAQTKVVKRKTAQTIWDIVVREEGTLEKVVTRLKPYQLKVQVFYQDKNQKITMTDLNVIKSVLGKLKRNKALKRKFKQGGVSLEHHHHHH”, for which the “soluble on expression in E. coli” value was “soluble”.

As to “MEKEKSLMKKQSKKSKKQNIEINYLDLIPVRSEELHWHKDIKGRVILDVENTGWFNKIAQTVFNKPQYTKVHLDAQGTFIWPLIDGKRTVTDIAALVKEEFGEAAEPLYPRIIKYFQIVESYHFIKFANMPSK”, the “soluble on expression in E. coli” value is “not soluble”.

Turning to “MDLGEFPAPDPSVLVQNFNISDFNGKWYITSGLNPTFDAFDCQLHEFHTEGDNKLVGNISWRIKTLDSGFFTRSAVQKFVQDPNQPGVLYNHDNEYLHYQDDWYILSSKIENKPEDYIFVYYRGRNDAWDGYGGAVVYTRSSVLPNSIIPELEKAAKSIGRDFSTFIRTDNTCGPEPRSHHHHHH”, the “soluble on expression in E. coli” value is “soluble”.

Consider “MPDHLQPTLFQDAGKTQASDTFQELLASIAARPKYLPDWPESHRALPNEILRSALFNCRNRNLPRMFLKEVEIAVIGDGQVIYRGEELRQDDELVWMHLMHLIKKSPLGECVEFTPYSFIKALGWPIKGQNYDRLRNCLSRMQATALRIQSKRLHSFVSISLIQKFLSRNERNESLTRWQVWVGKEMQLLFDEEFLTRVMWETRRSLPDGIASKLFGYWASHRKPYPVKVETLLKLCGSGMQTKHFKIELKRALDLLKQSGFLEAWELKDELVVVVRRH”, for which the “soluble on expression in E. coli” value is “not soluble”.

As to “QRVKRLLSITNDKHDEYLTEMVPLLVEFAKDECHNPFIDKDGNESIPSGVLIFVAKAAQFYMTNAGLTGRSMDTVSYNFATEIPSTILKKLNPYRKMAR”, the “soluble on expression in E. coli” value was “soluble”.

Consider “SLLQLNSPHVHNLFNTPFSAAIMDDVVIGLEVHVQLNRLRTKLFCSCPLNYHQSPPNTHVCPVCLGMPGAMPVINKEAVKAAVKVAMALNAEIQPFTVFDRKNYFYPDLPKGFQISQYDRPLALGGYVTIELDGQEKRIQLKRVHMEEDPGKLSYKGSITTAKYSLIDYNRSGAPLLEIVTEPVMNSPKEARLFLNKLRMILEYLEVFDGDLEGAMRVDANISIRGSGRVEIKNISSFKGVEKALSYEIMRQKNLLQRGRSVVRETRHFDEARNITVSLRSKEEEQDYRYFPEPDLVPVLTEEIVREVEGTLPEMPEEKRERLKRQYGIGDNFAKVLILDVKMADYFEEVAKLVDPKLAASWIVDVLRGELNYRDWSFAKCWEVFKPEEFAKLLKYFEEDRITEKGVVEVIRTKLDEGGEIDAIIQKKGLFAIPKEEIIKFCKEAIEENPKAVEDYLSGKRQALNFLVGQVMKKTRGRADPADTAKLIEEMLS”, for which the “soluble on expression in E. coli” value was “soluble”.

With “MKAYLHVASGKTFSGELAAPLEEKVSGEIVFFTGMTGYQEVLTDPSYKNQIIVFTYPLIGNYGINENDFESKRPHVEAVVVYEASREGFHYGAKYSLAEYLQHWNIPLLTHVDTRALVKEIRTAGTMMAELSLSPISAVGGEEAVFPVRAVSTKTIETYGEGGPHLVLVDFGYKKSILQSLLARGCRVTVVPHDTTPEAIDALKPDGLVLSNGPGDPKQLRHQLPAIRQLIDRYPTLAICLGHQLVALAYGADTEKLRFGHRGANQPVWDAVKQNVMMTSQNHSYVVKEGSLVGKPFDIRFINVNDGSVEGIVHRHKPILSVQYHPEAHPGPHDTGYIFDEFLQTVFKGENVYA”, the “soluble on expression in E. coli” value is recorded as “soluble”.

As for “MGSDKIHHHHHHMIDSMTHRKLSKTAQPLSPTRPWHSTKATCYSAMLSTWSLSQKRLSISALILAITSTATWANEVKNQDIQAASKSNTCYVEGVSDRLNCGFVTVPENPNKPDGKQIQVHYVVLPAVKNANHEEALLAIAGGPGQSAIDNAAGFDAMLSKVRQQRDILLIDQRGTGRSNLLTCDESANPLSLDDDSIDPSAETQKCLDKIDADVSQYGSLNAVKDFEAVRAHLGYKKLHIYGISYGTRMAQLYMRLYPEQLATVTLDGVVPMQQSVLEIGSAIDRGFELLFKDCQENTVCKQQFPQLKAEFEQVANTLAKGAITENVFDPVTGEKNQLIITRGKFYGAIRMALYQTNVRALVPHAIHQAANNHFQPLLGLYALTVDNAGIAMGMHTSVVCGEDIHRITPAMREKAASSYVGQTMLDSMEKTCAIWKVPAVDNSFSEPISSNIPTLLLSGEIDPATPPSWGELAMEKLTNAKHFIAPYATHGVAYQSCANGLVADLVRTGSINDLDGECLNKDVRRSFYLNASSVEPLNATSTKTTTTNNNASTGAKE”, the “soluble on expression in E. coli” value was “not soluble”.

For the sequence “MATKKATMIIEKDFKIAEIDKRIYGSFIEHLGRAVYGGIYEPGHPQADENGFRQDVIELVKELQVPIIRYPGGNFVSGYNWEDGVGPKEQRPRRLDLAWKSVETNEIGLNEFMDWAKMVGAEVNMAVNLGTRGIDAARNLVEYCNHPSGSYYSDLRIAHGYKEPHKIKTWCLGNEMDGPWQIGHKTAVEYGRIACEAAKVMKWVDPTIELVVCGSSNRNMPTFAEWEATVLDHTYDHVDYISLHQYYGNRDNDTANYLALSLEMDDFIRSVVAIADYVKAKKRSKKTIHLSFDEWNVWYHSNEADKLIEPWTVAPPLLEDIYNFEDALLVGCMLITLMKHADRVKIACLAQLVNVIAPIMTEKNGPAWKQTIYYPFMHASVYGRGVALHPVISSPKYDSKDFTDVPYLESIAVYNEEKEEVTIFAVNRDMEDALLLECDVRSFEDYRVIEHIVLEHDNVKQTNSAQSSPVVPHRNGDAQLSDRKVSATLPKLSWNVIRLGKR”, the “soluble on expression in E. coli” value was “soluble”.

Take “MGSDKIHHHHHHMLPLDSLSDCASKSYLLTHLPDLNHRHLSSSVSTNSELIAAVQDGTLNATAMHLLTAETQSAGRGQHGRSWQSPRGNVYLSLYHPVHIPISGLLSLIIGVELAKMPIIQTLNDQLCAQGLTPIGVKWANDLGFYSYQYHHQSELHKILLANEMTPFHKLAGILIEPVTQAGKLVGIVMGVGLNVQATPKLTAQTCEGMSYQAISLQDIKQLLEPDKSASALLSLRELYQQMSKALMAAMTRFEHLGLEKPTGQTYNLDSFLKQFDSMDALAGLRLRITQEHNGQTETLTGYACGIDTHGCLQLRQDNGNISALFTGRIDVIDNA”: the “soluble on expression in E. coli” value is given as “not soluble”.

Turning to “MTTKHSRTPGRPRQFDPEQAIETAQHLFHSRGYDAVSVADLTKAFGINPPSFYAAFGSKLGLYTRVLKRYRMTDAIPLGALLRHDRPTAKCLIDVLMEAARRYAADPDATGCLVLEGAHCNDKPAREAACEFYIAAENLIRTYVAMRYPQEADRTTDFMGTLMAGLSAKARAGYGLERLQESVLLAGDVLERLLPD”, the “soluble on expression in E. coli” value is listed as “not soluble”.

Consider “MSNQYINEPITTGKVTLETTAGDIEIELWTKEAPLACRNFIQLCMENYYKGTVFHRLVKNFILQGGDPTATGTGGESIYGKPFKDEIHQRLKFNRRGIVGMANAGRDDNGSQFFFTIGDRGAPELDKKHTIFGKVTGPTLFNMLKITEVETEGDRPVTFYKITGARIDNNPFDDLKPREKRKKEKSERRKEPKVVETKKTNLLSFGDEVEEDEQELAVFNKV”, for which the “soluble on expression in E. coli” value is “not soluble”.
